Experimental findings from patent US20260242478A1 (published 2026) are described below.

Where no end group is shown, it is not given here.

Experiment [1] has as its target T1, Anti-CD28 Fab (SEQ ID NOs: 696, 697).
T1 construct: In the phage ELISA the Fab was biotinylated and captured on neutravidin coated plates
Put plainly: phage ELISA; Fab-coated wells pre-incubated with CD28 antigen as competitor, clonal phage supernatant, anti-M13 HRP detection.
T1 sequence (VH, as listed by the source, chain 1 of 2): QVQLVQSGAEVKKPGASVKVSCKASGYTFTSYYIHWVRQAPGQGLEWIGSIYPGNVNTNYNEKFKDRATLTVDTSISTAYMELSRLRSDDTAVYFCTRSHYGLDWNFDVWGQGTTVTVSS
T1 sequence (VL, as listed by the source, chain 2 of 2): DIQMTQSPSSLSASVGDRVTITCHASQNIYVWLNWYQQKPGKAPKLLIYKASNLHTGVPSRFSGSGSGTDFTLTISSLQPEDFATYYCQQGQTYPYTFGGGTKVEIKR
Protocol: (§1) After panning, phage infected bacteria were plated out and colonies picked into 96 well blocks. Clonal phage was then amplified and separated from bacterial cells via centrifugation.
(§2) Clonal phage were harvested as crude supematants and screened via standard ELISAs. […] Prior to the addition of clonal phage, wells were incubated with blocking buffer and CD28 antigen or blocking buffer alone. Without washing or aspirating, clonal phage supematants were then added to the wells and incubated for a short time. Wells were then washed followed by detection of bound phage using a horse radish conjugated anti-M13 antibody. Clonal phage of interest were then sent for sequence analysis.

Experiment [2] shares this target. The experiment in a line: phage ELISA; biotinylated anti-CD28 Fab on neutravidin plate, clonal phage supernatant, anti-M13 HRP detection.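 Note: crude supernatants of single phage clones picked after panning were screened for binding.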
Target sequence in this assay (VH, as listed by the source, chain 1 of 2): as the sequence (VH, as listed by the source, chain 1 of 2) above
Target sequence in this assay (VL, as listed by the source, chain 2 of 2): as the sequence (VL, as listed by the source, chain 2 of 2) above
Protocol: as §1, §2
The target in experiment [3] is Anti-CD28 Fab (SEQ ID NOs: 696, 697). The experiment in a line: phage ELISA as above; wells pre-incubated with CD28 antigen as competitor.
Target sequence in this assay (VH, as listed by the source, chain 1 of 2): as the sequence (VH, as listed by the source, chain 1 of 2) above
Target sequence in this assay (VL, as listed by the source, chain 2 of 2): as the sequence (VL, as listed by the source, chain 2 of 2) above
Protocol: as §1, §2
For experiment [4] the target is unchanged. The experiment in a line: phage ELISA; biotinylated anti-CD28 Fab on neutravidin plate, clonal phage supernatant, anti-M13 HRP detection.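 Note: crude supernatants of single phage clones picked after panning were screened for binding.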
Target sequence in this assay (VH, as listed by the source, chain 1 of 2): as the sequence (VH, as listed by the source, chain 1 of 2) above
Target sequence in this assay (VL, as listed by the source, chain 2 of 2): as the sequence (VL, as listed by the source, chain 2 of 2) above
Protocol: as §1, §2
Experiment [5] shares this target. The experiment is described as above. The source holds these as a separate data set.
Target sequence in this assay (VH, as listed by the source, chain 1 of 2): as the sequence (VH, as listed by the source, chain 1 of 2) above
Target sequence in this assay (VL, as listed by the source, chain 2 of 2): as the sequence (VL, as listed by the source, chain 2 of 2) above
Protocol: as §1, §2
For experiment [6] the target is unchanged. The experiment in a line: phage ELISA; Fab on plate pre-incubated with CD28 antigen (competitor), clonal phage supernatant, anti-M13 HRP detection.
Target sequence in this assay (VH, as listed by the source, chain 1 of 2): as the sequence (VH, as listed by the source, chain 1 of 2) above
Target sequence in this assay (VL, as listed by the source, chain 2 of 2): as the sequence (VL, as listed by the source, chain 2 of 2) above
Protocol: as §1, §2
Experiment [7] has the same target. Put plainly: phage binding ELISA on captured anti-CD28 Fab, wells pre-incubated with CD28 antigen as competitor.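 Note: crude clonal phage supernatants added to wells preloaded with CD28 antigen, bound phage read by HRP-conjugated anti-M13 antibody, control wells got blocking buffer alone without CD28.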
Protocol: as §1, §2
Experiment [8] shares this target. The experiment in a line: phage binding ELISA, clonal phage on biotinylated anti-CD28 Fab captured on neutravidin plates.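 Note: crude clonal phage supernatants added to wells pretreated with CD28 antigen or blocking buffer only, bound phage detected by HRP-linked anti-M13 antibody.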
Protocol: as §1, §2

Turning to YCDGHYGAYILKCL [Phage-1292], the “Phage binding ELISA, Anti-CD28 Fab signal in the presence of CD28” value in experiment [1] stood at 0.06. The “Phage binding ELISA, Anti-CD28 Fab signal” value in experiment [2] turned out to be 0.67.
The corresponding values for YCEGHLPQYLAKCY [Phage-1291] are 0.08 and 0.67.
Taken in the same sequence, the figures for YCMGHSAEYMGKCL [Phage-1295] were 0.06 and 0.64.

B1: Phage-1302 (peptide, not shown: large carriers)
peptide: YCDGHIEMYMSKCM
modifications: cysteine pairing not given here; also: fused to phage pIII protein, pIII and linker sequence not given here
notes: Tested as clonal phage supernatant
Regarding B1, the “Anti-CD28 Fab signal in the presence of CD28 (phage binding ELISA)” value in experiment [3] is 0.06. In addition, the “Anti-CD28 Fab signal (phage binding ELISA)” value in experiment [4] is 0.61.
Take YCAGHSAEYIQKCL (also called Peptide-87 library clone) [Phage-1270]: the “Phage binding ELISA, Anti-CD28 Fab signal” value in experiment [5] was determined as 0.8. The “Phage binding ELISA, Anti-CD28 Fab signal in the presence of CD28” value in experiment [6] stood at 0.08.
As for YCDGHAWWYMEKCL [Phage-1296], the “Phage binding ELISA, Anti-CD28 Fab signal in the presence of CD28” value in experiment [1] came out at 0.06. For the same molecule, in experiment [2], the “Phage binding ELISA, Anti-CD28 Fab signal” value is 0.64.
In the case of YCQGHAPWYMVKCL [Phage-1287], the “Phage binding ELISA, Anti-CD28 Fab signal in the presence of CD28” value in experiment [1] is 0.08. Also, the “Phage binding ELISA, Anti-CD28 Fab signal” value in experiment [2] stood at 0.69.

B2: Phage-1307 (peptide, not shown: large carriers)
peptide: YCEGHLQEYMGKCL
modifications: cysteine pairing not given here; also: fused to phage pIII protein, pIII and linker sequence not given here
notes: as for B1
As to B2, the “Anti-CD28 Fab signal in the presence of CD28 (phage binding ELISA)” value in experiment [3] came to 0.25. Further, the “Anti-CD28 Fab signal (phage binding ELISA)” value in experiment [4] worked out at 0.58.
For YCDGHAAWYLQKCL [Phage-1297], the “Phage binding ELISA, Anti-CD28 Fab signal in the presence of CD28” value in experiment [1] is 0.07. The “Phage binding ELISA, Anti-CD28 Fab signal” value in experiment [2] was 0.64.

B3: Phage-1301 (peptide, not shown: large carriers)
peptide: YCEGHLAVHMSKCL
modifications: cysteine pairing not given here; also: fused to phage pIII protein, pIII and linker sequence not given here
notes: as for B1
As for B3, the “Anti-CD28 Fab signal in the presence of CD28 (phage binding ELISA)” value in experiment [3] came out at 0.06. The “Anti-CD28 Fab signal (phage binding ELISA)” value in experiment [4] amounted to 0.62.

B4: Phage-1304 (peptide, not shown: large carriers)
peptide: YCEGHIGDYIAKCL
modifications: cysteine pairing not given here; also: fused to phage pIII protein, pIII and linker sequence not given here
notes: as for B1
Regarding B4, in experiment [3], the “Anti-CD28 Fab signal in the presence of CD28 (phage binding ELISA)” value amounted to 0.36. In experiment [4], the “Anti-CD28 Fab signal (phage binding ELISA)” value stood at 0.61.

B5: Phage-1312 (peptide, not shown: large carriers)
peptide: YCDGHLETYMQKCL
modifications: cysteine pairing not given here; also: fused to phage pIII protein, pIII and linker sequence not given here
notes: as for B1
For the molecule B5, the “Anti-CD28 Fab signal in the presence of CD28 (phage binding ELISA)” value in experiment [3] worked out at 0.08. For the same molecule, the “Anti-CD28 Fab signal (phage binding ELISA)” value in experiment [4] stood at 0.53.
As to YCEGHSRQYMEKCM [Phage-1299], in experiment [1], the “Phage binding ELISA, Anti-CD28 Fab signal in the presence of CD28” value came to 0.33. For the same molecule, in experiment [2], the “Phage binding ELISA, Anti-CD28 Fab signal” value worked out at 0.63.
Take YCQGHSVQYMAKCL (also called Peptide-87 library clone) [Phage-1272]: the “Phage binding ELISA, Anti-CD28 Fab signal” value in experiment [5] is 0.77. Besides, the “Phage binding ELISA, Anti-CD28 Fab signal in the presence of CD28” value in experiment [6] came to 0.06.

B6: Phage-1311 (peptide, not shown: large carriers)
peptide: YCEGHVELYRQKCL
modifications: cysteine pairing not given here; also: fused to phage pIII protein, pIII and linker sequence not given here
notes: as for B1
Turning to B6, the “Anti-CD28 Fab signal in the presence of CD28 (phage binding ELISA)” value in experiment [3] turned out to be 0.06. For the same molecule, the “Anti-CD28 Fab signal (phage binding ELISA)” value in experiment [4] stood at 0.56.

B7: Phage-1305 (peptide, not shown: large carriers)
peptide: YCQGHSELYMSKCL
modifications: cysteine pairing not given here; also: fused to phage pIII protein, pIII and linker sequence not given here
notes: as for B1
On to B7, for which the “Anti-CD28 Fab signal in the presence of CD28 (phage binding ELISA)” value in experiment [3] was 0.08. For the same molecule, the “Anti-CD28 Fab signal (phage binding ELISA)” value in experiment [4] was found to be 0.6.

B8: Phage-1315 (peptide)
peptide: YCAGHTTEYIVKCL
notes: Peptide-87 library clone, tested as clonal phage (peptide fused to pIII of the bacteriophage)
Turning to B8, the “Anti-CD28 Fab signal in the presence of CD28 (phage binding ELISA)” value in experiment [7] came to 0.05. Besides, the “Anti-CD28 Fab signal (phage binding ELISA)” value in experiment [8] amounted to 0.5.
As to YCDGHEPQYMTKCL [Phage-1290], in experiment [1], the “Phage binding ELISA, Anti-CD28 Fab signal in the presence of CD28” value stood at 0.1. Besides, the “Phage binding ELISA, Anti-CD28 Fab signal” value in experiment [2] was determined as 0.68.
As to YCEGHMSEYMRKCL [Phage-1288], in experiment [1], the “Phage binding ELISA, Anti-CD28 Fab signal in the presence of CD28” value amounted to 0.1. Besides, in experiment [2], the “Phage binding ELISA, Anti-CD28 Fab signal” value is 0.69.
Taken in the same sequence, the figures for YCEGHAAVYMHKCL [Phage-1293] were 0.09 and 0.67.
Taken in the same sequence, the figures for YCVGHLPLYMPNCL [Phage-1289] were 0.11 and 0.68.

B9: Phage-1303 (peptide, not shown: large carriers)
peptide: YCAGHALEYMQKCM
modifications: cysteine pairing not given here; also: fused to phage pIII protein, pIII and linker sequence not given here
notes: as for B1
Regarding B9, the “Anti-CD28 Fab signal in the presence of CD28 (phage binding ELISA)” value in experiment [3] came to 0.08. The “Anti-CD28 Fab signal (phage binding ELISA)” value in experiment [4] turned out to be 0.61.

B10: Phage-1306 (peptide, not shown: large carriers)
peptide: YCDGHTPQFRAKCL
modifications: cysteine pairing not given here; also: fused to phage pIII protein, pIII and linker sequence not given here
notes: as for B1
In the case of B10, the “Anti-CD28 Fab signal in the presence of CD28 (phage binding ELISA)” value in experiment [3] was 0.07. Moreover, the “Anti-CD28 Fab signal (phage binding ELISA)” value in experiment [4] was found to be 0.59.

B11: Phage-1300 (peptide, not shown: large carriers)
peptide: YCSGHLPMYMAKCL
modifications: cysteine pairing not given here; also: fused to phage pIII protein, pIII and linker sequence not given here
notes: as for B1
In the case of B11, the “Anti-CD28 Fab signal in the presence of CD28 (phage binding ELISA)” value in experiment [3] came to 0.13. For the same molecule, the “Anti-CD28 Fab signal (phage binding ELISA)” value in experiment [4] was 0.62.

B12: Phage-1314 (peptide)
peptide: YCEGHLDEYLQKCM
notes: as for B8
Turning to B12, the “Anti-CD28 Fab signal in the presence of CD28 (phage binding ELISA)” value in experiment [7] amounted to 0.08. The “Anti-CD28 Fab signal (phage binding ELISA)” value in experiment [8] was 0.51.
As for YCDGHMDAYMSKCL [Phage-1294], the “Phage binding ELISA, Anti-CD28 Fab signal in the presence of CD28” value in experiment [1] turned out to be 0.06. In addition, the “Phage binding ELISA, Anti-CD28 Fab signal” value in experiment [2] was 0.65.
Taken in the same sequence, the figures for YCEGHAQMYMLKCL [Phage-1298] were 0.06 and 0.64.

B13: Phage-1308 (peptide, not shown: large carriers)
peptide: YCDGHVTEYMAKCL
modifications: cysteine pairing not given here; also: fused to phage pIII protein, pIII and linker sequence not given here
notes: as for B1
B13: the “Anti-CD28 Fab signal in the presence of CD28 (phage binding ELISA)” value in experiment [3] came to 0.07. In addition, the “Anti-CD28 Fab signal (phage binding ELISA)” value in experiment [4] was 0.58.

B14: Phage-1316 (peptide)
peptide: YCEGHVPQYMGKCL
notes: as for B8
Turning to B14, in experiment [7], the “Anti-CD28 Fab signal in the presence of CD28 (phage binding ELISA)” value stood at 0.08. The “Anti-CD28 Fab signal (phage binding ELISA)” value in experiment [8] worked out at 0.5.

B15: Phage-1309 (peptide, not shown: large carriers)
peptide: YCDGHIMPYLDKCL
modifications: cysteine pairing not given here; also: fused to phage pIII protein, pIII and linker sequence not given here
notes: as for B1
For B15, the “Anti-CD28 Fab signal in the presence of CD28 (phage binding ELISA)” value in experiment [3] is 0.05. The “Anti-CD28 Fab signal (phage binding ELISA)” value in experiment [4] was found to be 0.57.
For the molecule YCAGHTQEYMLKCL (also called Peptide-87 library clone) [Phage-1271], the “Phage binding ELISA, Anti-CD28 Fab signal” value in experiment [5] came out at 0.78. Also, in experiment [6], the “Phage binding ELISA, Anti-CD28 Fab signal in the presence of CD28” value came to 0.06.

B16: Phage-1310 (peptide, not shown: large carriers)
peptide: YCEGHKKEYMLKCL
modifications: cysteine pairing not given here; also: fused to phage pIII protein, pIII and linker sequence not given here
notes: as for B1
Take B16: the “Anti-CD28 Fab signal in the presence of CD28 (phage binding ELISA)” value in experiment [3] stood at 0.08. For the same molecule, the “Anti-CD28 Fab signal (phage binding ELISA)” value in experiment [4] amounted to 0.56.
